For test [1], the target named is IGF1R on BxPC3 cells (human, UniProt P08069 31-1367). As to the kind of experiment: cell-based or functional assay.
Test [2] concerns the target T1, IGF1R-ECD-His蛋白 (UniProt P08069 31-935).
T1 construct: extracellular domain; Expressed in HEK-293E cells; also called IGF1R抗原
In words: ELISA, IGF1R-ECD-His coated, HRP-anti-hFc. A general note: In an ELISA, binding on a coated surface is turned into a signal by an enzyme label.

The target of test [3] is T2, PDL1-ECD-His蛋白 (UniProt Q9NZQ7 19-238).
T2 construct: extracellular domain; Expressed in HEK-293E cells; also called PD-L1抗原; PDL1抗原
As to the kind of experiment: ELISA, PDL1-ECD-His coated, HRP goat anti-human Fc.

Test [4] concerns the target PD-L1 on PD-L1 aAPC/CHO-K1 cells (UniProt Q9NZQ7 19-290). As to the kind of experiment: cell-based or functional assay.
Test [5] has as its target T3, PDL1-ECD-hFc蛋白 (UniProt Q9NZQ7 19-238).
T3 construct: extracellular domain; PDL1-ECD-His with the C-terminal tag changed to hFc; also called PDL1抗原; not shown: hFc tag at the C-terminus in place of the His tag
In words: sandwich ELISA: PDL1-ECD-hFc coated, antibody, then IGF1R-ECD-His, HRP-anti-His.

Test [6] addresses T1, IGF1R-ECD-His蛋白. The test is described as above.

Several values for one entry are separate records, joined by “and”; a condition that tells them apart may be missing. Identical values can stand only once.

As a reminder, the EC50 is the concentration that produces a half-maximal response. Low values mean a more potent agent, high ones a less potent agent.

T2 sequence (Q9NZQ7 other isoform, or with tags, fused parts or gaps): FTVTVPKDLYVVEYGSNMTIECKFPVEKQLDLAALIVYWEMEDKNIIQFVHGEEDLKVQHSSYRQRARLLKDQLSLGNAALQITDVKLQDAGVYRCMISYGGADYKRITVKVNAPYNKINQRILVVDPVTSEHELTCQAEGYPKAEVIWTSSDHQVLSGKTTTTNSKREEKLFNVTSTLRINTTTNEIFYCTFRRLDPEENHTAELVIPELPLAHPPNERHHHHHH
Sequence of IGF1R on BxPC3 cells (P08069 31-1367): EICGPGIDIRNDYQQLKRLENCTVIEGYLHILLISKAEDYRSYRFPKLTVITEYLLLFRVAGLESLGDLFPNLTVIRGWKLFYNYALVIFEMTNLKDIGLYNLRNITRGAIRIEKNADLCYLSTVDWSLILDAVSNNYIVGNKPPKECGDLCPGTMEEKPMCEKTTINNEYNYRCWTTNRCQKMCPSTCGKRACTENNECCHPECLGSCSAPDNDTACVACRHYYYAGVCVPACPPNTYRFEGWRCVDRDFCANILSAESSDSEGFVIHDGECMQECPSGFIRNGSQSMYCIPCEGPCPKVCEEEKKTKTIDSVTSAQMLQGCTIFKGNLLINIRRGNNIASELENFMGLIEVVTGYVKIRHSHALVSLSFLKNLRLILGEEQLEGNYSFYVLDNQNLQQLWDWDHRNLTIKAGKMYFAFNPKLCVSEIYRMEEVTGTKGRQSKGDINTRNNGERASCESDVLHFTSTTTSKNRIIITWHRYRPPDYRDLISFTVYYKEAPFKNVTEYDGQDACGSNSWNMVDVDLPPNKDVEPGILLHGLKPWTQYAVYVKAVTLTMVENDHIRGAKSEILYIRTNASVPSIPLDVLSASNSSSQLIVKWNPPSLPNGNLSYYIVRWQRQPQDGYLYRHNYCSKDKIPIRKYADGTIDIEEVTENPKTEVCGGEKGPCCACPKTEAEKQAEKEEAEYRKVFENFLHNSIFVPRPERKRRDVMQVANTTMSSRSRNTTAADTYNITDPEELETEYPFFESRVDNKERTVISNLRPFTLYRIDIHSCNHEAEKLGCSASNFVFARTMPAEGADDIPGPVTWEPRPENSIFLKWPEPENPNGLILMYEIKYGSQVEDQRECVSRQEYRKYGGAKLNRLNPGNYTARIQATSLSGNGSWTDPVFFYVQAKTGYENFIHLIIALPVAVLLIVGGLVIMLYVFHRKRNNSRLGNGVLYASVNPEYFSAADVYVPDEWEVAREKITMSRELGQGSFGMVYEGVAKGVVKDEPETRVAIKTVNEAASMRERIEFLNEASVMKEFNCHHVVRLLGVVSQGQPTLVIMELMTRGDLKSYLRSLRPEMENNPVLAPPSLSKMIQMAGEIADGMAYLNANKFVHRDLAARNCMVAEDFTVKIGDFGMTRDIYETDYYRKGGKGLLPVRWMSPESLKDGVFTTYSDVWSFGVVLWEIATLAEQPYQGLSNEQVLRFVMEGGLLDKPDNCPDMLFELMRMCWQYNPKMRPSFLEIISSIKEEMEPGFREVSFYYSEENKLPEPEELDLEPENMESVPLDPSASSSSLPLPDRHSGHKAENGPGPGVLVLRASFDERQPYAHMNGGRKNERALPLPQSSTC
Sequence of PD-L1 on PD-L1 aAPC/CHO-K1 cells (Q9NZQ7 19-290): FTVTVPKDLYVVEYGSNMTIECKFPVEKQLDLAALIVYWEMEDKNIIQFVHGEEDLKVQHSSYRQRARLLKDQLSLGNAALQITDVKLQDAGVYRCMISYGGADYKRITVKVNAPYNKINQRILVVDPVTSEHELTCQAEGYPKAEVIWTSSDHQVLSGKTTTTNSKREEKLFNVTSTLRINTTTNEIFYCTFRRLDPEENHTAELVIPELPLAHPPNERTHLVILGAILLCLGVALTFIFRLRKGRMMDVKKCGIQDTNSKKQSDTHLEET
T1 sequence (P08069 31-935): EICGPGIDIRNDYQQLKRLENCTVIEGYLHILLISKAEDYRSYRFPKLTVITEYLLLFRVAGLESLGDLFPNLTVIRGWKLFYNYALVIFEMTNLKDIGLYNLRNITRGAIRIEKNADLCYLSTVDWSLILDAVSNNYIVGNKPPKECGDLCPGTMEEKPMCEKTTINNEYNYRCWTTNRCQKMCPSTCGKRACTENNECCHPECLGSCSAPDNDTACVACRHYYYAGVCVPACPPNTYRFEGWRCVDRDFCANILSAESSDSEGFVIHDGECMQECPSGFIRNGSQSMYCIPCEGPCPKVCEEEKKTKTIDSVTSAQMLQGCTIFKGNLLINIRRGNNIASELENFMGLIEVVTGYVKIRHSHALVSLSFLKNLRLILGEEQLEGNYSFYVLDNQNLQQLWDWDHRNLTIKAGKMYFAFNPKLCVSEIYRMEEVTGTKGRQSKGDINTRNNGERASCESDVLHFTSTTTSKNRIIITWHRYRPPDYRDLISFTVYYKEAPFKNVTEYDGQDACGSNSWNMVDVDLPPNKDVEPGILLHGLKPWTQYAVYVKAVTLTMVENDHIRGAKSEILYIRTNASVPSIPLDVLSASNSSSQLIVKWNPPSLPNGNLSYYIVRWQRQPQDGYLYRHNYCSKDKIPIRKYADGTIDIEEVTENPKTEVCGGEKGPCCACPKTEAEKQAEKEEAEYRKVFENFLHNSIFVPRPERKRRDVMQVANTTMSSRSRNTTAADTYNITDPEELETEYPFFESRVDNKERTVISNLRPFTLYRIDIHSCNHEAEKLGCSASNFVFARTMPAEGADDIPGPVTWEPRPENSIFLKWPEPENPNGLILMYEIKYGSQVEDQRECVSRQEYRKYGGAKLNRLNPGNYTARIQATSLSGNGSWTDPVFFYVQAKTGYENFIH
T3 sequence (Q9NZQ7 19-238): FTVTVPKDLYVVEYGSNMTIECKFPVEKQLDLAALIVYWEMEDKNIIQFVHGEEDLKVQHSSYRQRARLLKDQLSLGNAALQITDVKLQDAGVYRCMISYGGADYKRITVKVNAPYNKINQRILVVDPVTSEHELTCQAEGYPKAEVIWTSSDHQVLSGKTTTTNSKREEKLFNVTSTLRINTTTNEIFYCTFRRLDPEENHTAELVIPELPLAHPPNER

B1: 抗PDL1×IGF1R双特异性抗体 D31-5 (bispecific antibody, human IgG1, kappa)
heavy: not shown
light: EIVLTQSPDFLSVTPKEKVTITCRASQSIGTTIHWYQQKPDQSPKLLIKYASQSFSGVPSRFSGSGSGTDFTLTINSVEAEDAATYYCQQSNSWPLTFGAGTKLEIKRTVAAPSVFIFPPSDEQLKSGTASVVCLLNNFYPREAKVQWKVDNALQSGNSQESVTEQDSKDSTYSLSSTLTLSKADYEKHKVYACEVTHQGLSSPVTKSFNRGEC
notes: Anti-PDL1 IgG1 with A12 scFv1 (VL-L1-VH) at the C-terminus of each heavy chain
Consider B1, for which the “IC50, inhibition of BxPC3 proliferation with IGF-1 100 ng/mL (CCK8)” value (“IC50, inhibition of BxPC3 proliferation” for short) in test [1] was 39.6 nM. In addition, the values for the EC50 in test [2] and in test [3] were 0.137 nM and 0.0858 nM, respectively. Besides, the “EC50, PD-1/PD-L1 Blockade Bioassay (luciferase reporter)” value (from here on “EC50, PD-1/PD-L1 Blockade Bioassay”) in test [4] was found to be 0.401 nM.

B2: 抗PDL1×IGF1R双特异性抗体 D31-7 (bispecific antibody, human IgG1, kappa)
heavy: not shown
light: EIVLTQSPDFLSVTPKEKVTITCRASQSIGTTIHWYQQKPDQSPKLLIKYASQSFSGVPSRFSGSGSGTDFTLTINSVEAEDAATYYCQQSNSWPLTFGAGTKLEIKRTVAAPSVFIFPPSDEQLKSGTASVVCLLNNFYPREAKVQWKVDNALQSGNSQESVTEQDSKDSTYSLSSTLTLSKADYEKHKVYACEVTHQGLSSPVTKSFNRGEC
notes: Anti-PDL1 IgG1 with A12 scFv2 at the N-terminus of each heavy chain
On to B2, for which the “IC50, inhibition of BxPC3 proliferation” value in test [1] was 20.5 nM. Moreover, the values for the EC50 in test [2] and in test [3] were 0.0648 nM and 0.0749 nM, respectively. Also, the “EC50, PD-1/PD-L1 Blockade Bioassay” value in test [4] turned out to be 0.496 nM.

B3: 抗PDL1×IGF1R双特异性抗体 D31-8 (bispecific antibody, human IgG1, kappa)
heavy: not shown
light: EIVLTQSPDFLSVTPKEKVTITCRASQSIGTTIHWYQQKPDQSPKLLIKYASQSFSGVPSRFSGSGSGTDFTLTINSVEAEDAATYYCQQSNSWPLTFGAGTKLEIKRTVAAPSVFIFPPSDEQLKSGTASVVCLLNNFYPREAKVQWKVDNALQSGNSQESVTEQDSKDSTYSLSSTLTLSKADYEKHKVYACEVTHQGLSSPVTKSFNRGEC
notes: Anti-PDL1 IgG1 with A12 scFv1 at the N-terminus of each heavy chain
On to B3, for which the “IC50, inhibition of BxPC3 proliferation” value in test [1] is 5.62 nM. The EC50 in test [2] stood at 0.0465 nM; in test [3], 0.0572 nM. The “EC50, PD-1/PD-L1 Blockade Bioassay” value in test [4] amounted to 0.391 nM.

B4: 抗PDL1×IGF1R双特异性抗体 D31-6 (bispecific antibody, human IgG1, kappa)
heavy: not shown
light: EIVLTQSPDFLSVTPKEKVTITCRASQSIGTTIHWYQQKPDQSPKLLIKYASQSFSGVPSRFSGSGSGTDFTLTINSVEAEDAATYYCQQSNSWPLTFGAGTKLEIKRTVAAPSVFIFPPSDEQLKSGTASVVCLLNNFYPREAKVQWKVDNALQSGNSQESVTEQDSKDSTYSLSSTLTLSKADYEKHKVYACEVTHQGLSSPVTKSFNRGEC
notes: Anti-PDL1 IgG1 with A12 scFv2 (VH-L1-VL) at the C-terminus of each heavy chain
Take B4: the “IC50, inhibition of BxPC3 proliferation” value in test [1] was found to be 67 nM. Further, the EC50 in test [2] amounted to 0.0961 nM; in test [3], 0.079 nM. In test [4], the “EC50, PD-1/PD-L1 Blockade Bioassay” value is 0.336 nM.

B5: 抗PDL1×IGF1R双特异性抗体 D31-1 (bispecific antibody, human IgG1, lambda)
heavy: not shown
light: SSELTQDPAVSVALGQTVRITCQGDSLRSYYATWYQQKPGQAPILVIYGENKRPSGIPDRFSGSSSGNTASLTITGAQAEDEADYYCKSRDGSGQHLVFGGGTKLTVLGQPKAAPSVTLFPPSSEELQANKATLVCLISDFYPGAVTVAWKADSSPVKAGVETTTPSKQSNNKYAASSYLSLTPEQWKSHRSYSCQVTHEGSTVEKTVAPAECS
notes: A12 IgG1 with anti-PDL1 scFv1 (VL-L1-VH) at the C-terminus of each heavy chain
Consider B5, for which the “IC50, inhibition of BxPC3 proliferation” value in test [1] stood at 1.96 nM. The figures for the EC50 in test [2] and in test [3] were 0.193 nM and 0.391 nM, respectively. Besides, the “EC50, PD-1/PD-L1 Blockade Bioassay” value in test [4] was found to be 2.98 nM.

B6: 抗PDL1×IGF1R双特异性抗体 D31-4 (bispecific antibody, human IgG1, lambda)
heavy: not shown
light: SSELTQDPAVSVALGQTVRITCQGDSLRSYYATWYQQKPGQAPILVIYGENKRPSGIPDRFSGSSSGNTASLTITGAQAEDEADYYCKSRDGSGQHLVFGGGTKLTVLGQPKAAPSVTLFPPSSEELQANKATLVCLISDFYPGAVTVAWKADSSPVKAGVETTTPSKQSNNKYAASSYLSLTPEQWKSHRSYSCQVTHEGSTVEKTVAPAECS
notes: A12 IgG1 with anti-PDL1 scFv1 at the N-terminus of each heavy chain
On to B6, for which, in test [1], the “IC50, inhibition of BxPC3 proliferation” value came to 16.5 nM. Moreover, the EC50 in test [2] and in test [3] was 0.249 nM each time. The “EC50, PD-1/PD-L1 Blockade Bioassay” value in test [4] stood at 1.31 nM.

B7: 抗PDL1×IGF1R双特异性抗体 D31-3 (bispecific antibody, human IgG1, lambda)
heavy: not shown
light: SSELTQDPAVSVALGQTVRITCQGDSLRSYYATWYQQKPGQAPILVIYGENKRPSGIPDRFSGSSSGNTASLTITGAQAEDEADYYCKSRDGSGQHLVFGGGTKLTVLGQPKAAPSVTLFPPSSEELQANKATLVCLISDFYPGAVTVAWKADSSPVKAGVETTTPSKQSNNKYAASSYLSLTPEQWKSHRSYSCQVTHEGSTVEKTVAPAECS
notes: A12 IgG1 with anti-PDL1 scFv2 at the N-terminus of each heavy chain
Turning to B7, the “IC50, inhibition of BxPC3 proliferation” value in test [1] is 47.7 nM. Further, the EC50 in test [2] came to 0.315 nM; in test [3], 0.301 nM. Moreover, the “EC50, PD-1/PD-L1 Blockade Bioassay” value in test [4] came out at 1.83 nM.

B8: 抗PDL1×IGF1R双特异性抗体 D31-2 (bispecific antibody, human IgG1, lambda)
heavy: not shown
light: SSELTQDPAVSVALGQTVRITCQGDSLRSYYATWYQQKPGQAPILVIYGENKRPSGIPDRFSGSSSGNTASLTITGAQAEDEADYYCKSRDGSGQHLVFGGGTKLTVLGQPKAAPSVTLFPPSSEELQANKATLVCLISDFYPGAVTVAWKADSSPVKAGVETTTPSKQSNNKYAASSYLSLTPEQWKSHRSYSCQVTHEGSTVEKTVAPAECS
notes: A12 IgG1 with anti-PDL1 scFv2 (VH-L1-VL) at the C-terminus of each heavy chain
On to B8, for which the “IC50, inhibition of BxPC3 proliferation” value in test [1] worked out at 2.51 nM. Further, the EC50 in test [2] is 0.185 nM; in test [3] it was 0.296 nM. For the same molecule, the “EC50, PD-1/PD-L1 Blockade Bioassay” value in test [4] is 1.75 nM.

B9: 抗IGF1R单抗 A12 (antibody, human IgG1, lambda, V domains shown)
VH: EVQLVQSGAEVKKPGSSVKVSCKASGGTFSSYAISWVRQAPGQGLEWMGGIIPIFGTANYAQKFQGRVTITADKSTSTAYMELSSLRSEDTAVYYCARAPLRFLEWSTQDHYYYYYMDVWGKGTTVTVSS
VL: SSELTQDPAVSVALGQTVRITCQGDSLRSYYATWYQQKPGQAPILVIYGENKRPSGIPDRFSGSSSGNTASLTITGAQAEDEADYYCKSRDGSGQHLVFGGGTKLTVLG
notes: also called anti-IGF1RmAb; 抗IGF1R抗体A12
For the molecule B9, the “IC50, inhibition of BxPC3 proliferation” value in test [1] was 6.77 nM and 14 nM. Besides, the EC50 in test [2] is 0.157 nM and 0.0676 nM. Besides, the binding result in test [5] is recorded as “no binding (tested: 起始浓度为30nM)”.

B10: 抗PD-L1单抗(anti-PDL1 mAb) (antibody, human IgG1, kappa, V domains shown)
VH: QVQLQQSGGGLVKPSQSLSLTCTVSGFSLTSYGVHWVRQPPGKGLEWIGLIWSGGGTDYNPSLKSRLTISRDTSKNQVSFKISSLTAADTAVYYCARQLGLRAMDYWGQGTSVTVSS
VL: EIVLTQSPDFLSVTPKEKVTITCRASQSIGTTIHWYQQKPDQSPKLLIKYASQSFSGVPSRFSGSGSGTDFTLTINSVEAEDAATYYCQQSNSWPLTFGAGTKLEIKR
notes: also called 抗人PD-L1单抗
B10: in test [6], the binding result is on record as “no binding (tested: 起始浓度为30nM)”. The EC50 in test [3] was 0.0836 nM and 0.145 nM. Moreover, the “EC50, PD-1/PD-L1 Blockade Bioassay” value in test [4] was 0.363 nM and 0.901 nM.

(Values after patent publication CN116496403A (ZEDA BIOMEDICAL CO LTD, dated 2023).)
